How the values were obtained:
[1] = target: surface-immobilized biotinylated microtubules, Q2XVP4;Q767L7; assay: fluorescence intensity of GFP-tagged MAP9-MTBD on surface-immobilized MTs (fluorescence microscopy); settings: 100 nM MAP9 construct (stated for panel h); parent: est. 0.72; read off a plot
[2] = target: surface-immobilized biotinylated microtubules (pig) (UniProt Q2XVP4); assay: TIRF microscopy, fluorescence intensity of GFP-tagged MAP on microtubules; biotinylated MTs held on a streptavidin-coated coverslip; one concentration of WT or mutant MAP9 construct (100 nM in Fig. 1h-i and Extended Data Fig. 6b); BRB80, 100 mM salt

Row | Substance | response [1] [a.u.] | percent reduction of MT binding against WT MAP9-MTBD [2] [%]
1 | MAP9-MTBD (Human MAP9 (302–647)::GFP::strepII) (from UniProt Q49MG5) W432A; W476A; W519A; W563A; W606A | 0.04 | 
2 | MAP9-MTBD R1R2 (from UniProt Q49MG5 302-647) (domain or fragment) |  | 80
3 | MAP9-MTBD (Human MAP9 (302–647)::GFP::strepII) (from UniProt Q49MG5) F473A; F516A | 0.17 | 

Source: paper doi:10.1101/2025.11.17.688911
